Test results from paper PMC3166062, “Self-Association of an Activating Natural Killer Cell Receptor, KIR2DS1” (PLoS ONE, 2011).

Biological target: the molecule itself
Assay: dynamic light scattering; KIR2DS1 3 µM in 10 mM Tris-HCl, 150 mM sodium chloride, 0.4 mM sodium azide, 25°C; Zetasizer Nano ZS; mean hydrodynamic diameter 320 nm

B1: extracellular region of KIR2DS1 (domain or fragment)
chain: MAHEGVHRKPSLLAHPGRLVKSEETVILQCWSDVMFEHFLLHREGMFNDTLRLIGEHHDGVSKANFSISRMRQDLAGTYRCYGSVTHSPYQLSAPSDPLDIVIIGLYEKPSLSAQPGPTVLAGENVTLSCSSRSSYDMYHLSREGEAHERRLPAGTKVNGTFQANFPLGPATHGGTYRCFGSFRDSPYEWSKSSDPLLVSVTLVPRGS
notes: No cleavage of the tag is described; also called extracellular portion of KIR2DS1
**Q.** Does B1 bind?
**A.** Result: binds
